Test results taken from the supplement of paper PMC7877785.
± gives the uncertainty stated by the source.

Experiment: self-splicing fitness, log relative to wild type (ln ratio); higher = more splicing; Tetrahymena group I intron in knt gene, E. coli kanamycin selection, DiMSum; sequences stand for … in CUCUCU…GGAGGGAAAAGUUAUCAGGCAUGCACCUGGUAGCUAGUCUUUAAACCAAUAGAUUGCAUCGGUUUAAAAGGCAAGACCGUCAAAUUGCGGGAAAGGGGUCAACAGCCGUUCAGUACCAAGUCUCAGGGGAAACUUUGAGAUGGCCUUGCAAAGGGUAUGGUAAUAAGCUGACGGACAUGGUCCUAACCACGCAGCCAAGUCCUAAGUCAACAGAUCUUCUGUUGAUAUGGAUGCAGUUCACAGACUAAAUGUCGGUCGGGGAAGAUGUAUUCUUCUCAUAAGAUAUAGUCGGACCUCUCCUUAAUGGGAGCUAGCGGAUGAAGUGAUGCAACACUGGAGCCGCUGGGAACUAAUUUGUAUGCGAAAGUAUAUUGAUUAGUUUUGGAGUACUCGUGGUCG
Procedure, shortened: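 A randomised library covering all eight P1ex-region intron nucleotides was built with the intron in the knt kanamycin-resistance gene on pET-22b(+) and held in E. coli BL21(DE3). Cells were grown overnight at 37°C or 30°C on LB agar, with or without 25 μg/mL kanamycin, plus 100 μg/mL carbenicillin, 50 μM IPTG and 0.2% rhamnose, and pooled colonies were amplicon-sequenced on an Illumina HiSeq 2500. DiMSum fitness is the error-weighted combination of wild-type-normalised replicate fold changes, kanamycin versus none.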

Row | Sequence | self-splicing fitness (ln) (30 °C) | self-splicing fitness (ln) (37 °C)
1 | AACGAGCAAUAUUACGUCAU | -2.98 ± 0.1 | -2.44 ± 0.13
2 | UCGCAGCAAUAUUACGUGUC | -3.83 ± 0.2 | -2.28 ± 0.17
3 | AGGCAGCAAUAUUACGAGUG | -3.63 ± 0.28 | -1.96 ± 0.18
4 | CGUUAGCAAUAUUACGCCAU |  | -1.61 ± 0.2
5 | AAUAAGCAAUAUUACGACCA | -0.614 ± 0.18 | 0.141 ± 0.29
6 | ACUUAGCAAUAUUACGAAGA | -1.69 ± 0.12 | -1.24 ± 0.14
7 | ACACAGCAAUAUUACGGCGC | -0.533 ± 0.067 | 0.309 ± 0.079
8 | GGACAGCAAUAUUACGUUUA | -0.44 ± 0.059 | 0.258 ± 0.077
9 | UACAAGCAAUAUUACGGGCU | -4.2 ± 0.34 | -2.82 ± 0.18
10 | UCACAGCAAUAUUACGCCAU | -3.28 ± 0.19 | -2.22 ± 0.18
11 | GGUAAGCAAUAUUACGAGGU | -3.61 ± 0.37 | -2.22 ± 0.28
12 | AGAGAGCAAUAUUACGUGAG | -3.12 ± 0.17 | -2.9 ± 0.26
13 | CGAAAGCAAUAUUACGAGGC | -3.72 ± 0.2 | -1.88 ± 0.21
14 | GCAUAGCAAUAUUACGUUGC | -3.65 ± 0.21 | -1.72 ± 0.21
15 | AGAAAGCAAUAUUACGUGUA | -2.13 ± 0.1 | -0.737 ± 0.094
16 | AGGGAGCAAUAUUACGUGCU | -3.8 ± 0.3 | -1.92 ± 0.25
17 | CGUUAGCAAUAUUACGCUUC |  | -2.27 ± 0.36
18 | GACUAGCAAUAUUACGCAGG | -3.04 ± 0.17 | -2.17 ± 0.12
19 | CAAUAGCAAUAUUACGAGUU | -3.64 ± 0.2 | -2.19 ± 0.2
20 | GAAGAGCAAUAUUACGGAUG | -3.4 ± 0.45 | -1.09 ± 0.31
21 | UUGUAGCAAUAUUACGGGAA | -2.13 ± 0.17 | -1.32 ± 0.16
22 | UACAAGCAAUAUUACGUCCU | -1.16 ± 0.1 | 0.292 ± 0.15
23 | ACUUAGCAAUAUUACGAGGG | -3.07 ± 0.24 | -2.65 ± 0.23
24 | GGCCAGCAAUAUUACGGAGA | -0.788 ± 0.095 | -0.565 ± 0.086
25 | CUGUAGCAAUAUUACGCGUC |  | -2.41 ± 0.45
26 | ACGUAGCAAUAUUACGACAA | -0.894 ± 0.071 | -0.495 ± 0.084

Row | Sequence | self-splicing fitness (ln) (30 °C) | self-splicing fitness (ln) (37 °C)
27 | AGUCAGCAAUAUUACGAUGG | -1.55 ± 0.062 | -0.364 ± 0.083
28 | CAAUAGCAAUAUUACGCUUU | -4.34 ± 0.27 | -2.2 ± 0.19
29 | CUCAAGCAAUAUUACGGUCA | -3.19 ± 0.2 | -2.35 ± 0.2
30 | UAAAAGCAAUAUUACGAUGC | -3.82 ± 0.29 | -2.3 ± 0.18
31 | CUUUAGCAAUAUUACGGUCU | -3.25 ± 0.2 | -3.94 ± 0.36
32 | AUCAAGCAAUAUUACGUGUA | -2.39 ± 0.14 | -1.42 ± 0.12
33 | GGCUAGCAAUAUUACGCUCC | -2.32 ± 0.26 | 
34 | GUUUAGCAAUAUUACGACUU | -0.551 ± 0.11 | 0.304 ± 0.14
35 | UGAAAGCAAUAUUACGGGUU | -4.06 ± 0.27 | -2.06 ± 0.19
36 | AGCCAGCAAUAUUACGAUGA | -3.75 ± 0.29 | -2.35 ± 0.24
37 | CCCGAGCAAUAUUACGCUAA | -2.14 ± 0.27 | -1.99 ± 0.2
38 | GACGAGCAAUAUUACGCAUA | -1.6 ± 0.21 | -0.87 ± 0.17
39 | ACCGAGCAAUAUUACGGCCC | -2.37 ± 0.21 | -1.89 ± 0.29
40 | CAACAGCAAUAUUACGCUCA | -1.15 ± 0.096 | -1.4 ± 0.12
41 | GUGAAGCAAUAUUACGGACA | 0.209 ± 0.092 | -0.366 ± 0.1
42 | GAGCAGCAAUAUUACGCCCU | -0.964 ± 0.31 | 
43 | ACCGAGCAAUAUUACGGUCA | -1.22 ± 0.12 | -1.06 ± 0.14
44 | UCCCAGCAAUAUUACGCAGG | -3.88 ± 0.29 | -3.54 ± 0.26
45 | AGUUAGCAAUAUUACGCGAG | -2.52 ± 0.22 | -1.52 ± 0.21
46 | GUGCAGCAAUAUUACGGAGU | -3.05 ± 0.12 | -2.07 ± 0.11
47 | UCAUAGCAAUAUUACGUAGU | -3.07 ± 0.21 | -2.17 ± 0.28
48 | UCUUAGCAAUAUUACGUCAA | -2.43 ± 0.25 | -2.6 ± 0.44
49 | AUAGAGCAAUAUUACGUCGA | -2.82 ± 0.19 | -1.04 ± 0.17
50 | UUAUAGCAAUAUUACGCCCG | -1.45 ± 0.36 | 
51 | GCGCAGCAAUAUUACGAGUC | -1.6 ± 0.13 | -1.36 ± 0.24
52 | UGCCAGCAAUAUUACGGGAA | -1.37 ± 0.092 | -0.333 ± 0.1

Row | Sequence | self-splicing fitness (ln) (30 °C) | self-splicing fitness (ln) (37 °C)
53 | AAGCAGCAAUAUUACGAGGC | -1.38 ± 0.13 | -2.17 ± 0.22
54 | GUAAAGCAAUAUUACGUACG | -0.843 ± 0.069 | -0.015 ± 0.1
55 | GCUUAGCAAUAUUACGCCCA | -1.96 ± 0.24 | -0.0842 ± 0.23
56 | CUCAAGCAAUAUUACGCAAC | -2.65 ± 0.36 | 
57 | CCGAAGCAAUAUUACGGACA |  | -1.57 ± 0.2
58 | UCAGAGCAAUAUUACGGCAA | -2.43 ± 0.33 | 
59 | AAGGAGCAAUAUUACGUACC | -3.01 ± 0.33 | -3.19 ± 0.41
60 | AAUGAGCAAUAUUACGGCUU | -1.85 ± 0.19 | -1.19 ± 0.18
61 | CACAAGCAAUAUUACGCAGG | -2.65 ± 0.15 | -1.01 ± 0.13
62 | UAUCAGCAAUAUUACGAAGC | -3.75 ± 0.36 | -2.09 ± 0.31
63 | GUCUAGCAAUAUUACGUGAG | -0.175 ± 0.075 | 0.0626 ± 0.093
64 | AUAAAGCAAUAUUACGUAUU | -2.73 ± 0.12 | -1.79 ± 0.13
65 | AAGUAGCAAUAUUACGAAGU | -3.02 ± 0.2 | -1.9 ± 0.18
66 | GACGAGCAAUAUUACGCUCC | -2.9 ± 0.29 | -1.91 ± 0.34
67 | GAUAAGCAAUAUUACGUAUA | -1.81 ± 0.12 | -1.01 ± 0.11
68 | AGAGAGCAAUAUUACGACCU | -1.59 ± 0.18 | -0.651 ± 0.26
69 | CAUUAGCAAUAUUACGUACC | -3.96 ± 0.21 | -1.28 ± 0.13
70 | AAGCAGCAAUAUUACGAAGU | -3.3 ± 0.13 | -1.34 ± 0.13
71 | UCUUAGCAAUAUUACGCACA | -1.04 ± 0.22 | -0.879 ± 0.23
72 | GUGAAGCAAUAUUACGCUCA | -1.35 ± 0.12 | -1.62 ± 0.17
73 | AUGGAGCAAUAUUACGGGAU | -3.03 ± 0.22 | -0.546 ± 0.19
74 | UCCAAGCAAUAUUACGAUAG | -2.81 ± 0.13 | -2.98 ± 0.21
75 | AAAUAGCAAUAUUACGCAGG | -1.68 ± 0.12 | -1.65 ± 0.11
76 | UUGUAGCAAUAUUACGCGAU | -3.54 ± 0.26 | -2.51 ± 0.25
77 | UAGGAGCAAUAUUACGUUCU | -3.31 ± 0.36 | -2.54 ± 0.27
78 | UUUGAGCAAUAUUACGUUGA |  | -1.92 ± 0.33
